{
  "source": "patent US20190048340",
  "about": "(CRISPR Therapeutics AG, published 2019)",
  "biological_target": "Cpf1 (FnCpf1, FTN_1397) wild type (Francisella novicida U112, UniProt A0Q7Q2 SEQ:1-1300)",
  "sequence (A0Q7Q2 whole entry)": "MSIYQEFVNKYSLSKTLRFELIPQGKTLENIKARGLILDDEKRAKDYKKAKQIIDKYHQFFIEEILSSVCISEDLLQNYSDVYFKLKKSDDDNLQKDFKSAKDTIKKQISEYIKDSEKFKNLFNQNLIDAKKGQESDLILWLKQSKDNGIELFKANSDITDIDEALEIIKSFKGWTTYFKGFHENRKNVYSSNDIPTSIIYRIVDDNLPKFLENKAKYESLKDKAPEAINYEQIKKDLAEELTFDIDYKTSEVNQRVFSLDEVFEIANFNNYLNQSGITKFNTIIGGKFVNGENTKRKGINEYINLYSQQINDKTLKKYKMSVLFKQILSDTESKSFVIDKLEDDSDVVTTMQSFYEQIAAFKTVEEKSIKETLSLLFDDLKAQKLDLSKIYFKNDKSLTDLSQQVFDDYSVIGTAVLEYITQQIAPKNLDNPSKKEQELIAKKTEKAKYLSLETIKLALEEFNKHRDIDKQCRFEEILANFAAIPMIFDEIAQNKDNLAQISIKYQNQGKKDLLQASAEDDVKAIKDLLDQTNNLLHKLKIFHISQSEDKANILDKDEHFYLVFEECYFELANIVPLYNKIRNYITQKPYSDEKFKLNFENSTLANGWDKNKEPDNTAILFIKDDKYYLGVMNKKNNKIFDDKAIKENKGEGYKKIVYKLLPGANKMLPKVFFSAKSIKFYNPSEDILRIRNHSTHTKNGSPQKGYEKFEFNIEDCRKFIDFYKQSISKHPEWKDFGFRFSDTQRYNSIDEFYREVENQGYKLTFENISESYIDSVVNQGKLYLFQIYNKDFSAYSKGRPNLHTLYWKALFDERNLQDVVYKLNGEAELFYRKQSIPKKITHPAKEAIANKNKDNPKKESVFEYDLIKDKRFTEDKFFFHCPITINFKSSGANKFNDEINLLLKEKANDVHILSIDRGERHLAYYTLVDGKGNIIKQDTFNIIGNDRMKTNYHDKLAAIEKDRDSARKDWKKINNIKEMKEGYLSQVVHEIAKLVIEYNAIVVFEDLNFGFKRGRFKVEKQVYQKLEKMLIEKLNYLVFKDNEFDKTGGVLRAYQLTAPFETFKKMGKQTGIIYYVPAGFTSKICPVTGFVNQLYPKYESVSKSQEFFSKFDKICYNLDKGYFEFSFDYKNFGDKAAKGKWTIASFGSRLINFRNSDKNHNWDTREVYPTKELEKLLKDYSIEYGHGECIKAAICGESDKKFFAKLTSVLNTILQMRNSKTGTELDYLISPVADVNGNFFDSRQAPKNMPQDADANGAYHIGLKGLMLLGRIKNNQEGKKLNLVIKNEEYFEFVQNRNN",
  "test": "EMSA; PAM YTN (TTA); 37 C",
  "conditions": "tags: N-terminal 6xHis (pET-16b); label: 5'-32P; repeat hairpin",
  "data": [
    {"binder": "crRNA-sp5 repeat-spacer full-length (RNA 4); ref is antisense T7 transcription template ; Psp5 oligonucleotide duplex (ssRNA ; dsDNA) RNA: GGGUCUAAGAACUUUAAAUAAUUUCUACUGUUGUAGAUAGAUUAAAAGGUAAUUCUAUCUUGUUGAG DNA 1: AGCTGTAGCAAATATTAATCATATAGAAGAAAGCTCAGATCTCAACAAGATAGAATTACCTTTTAATCTTAAATTATTATATCCAGAAACTATTGATGGTAATTTACTTATC DNA 2: AGCTGATAAGTAAATTACCATCAATAGTTTCTGGATATAATAATTTAAGATTAAAAGGTAATTCTATCTTGTTGAGATCTGAGCTTTCTTCTATATGATTAATATTTGCTAC", "values": [
      {"measurement": "Kd", "result": 50, "unit": "nM"}
    ]}
  ]
}
